Measured values reported in patent US8227193 (University of California, dated 2012).

Target: T1, human p52 DNA-binding domain (p52 DBD) (human, UniProt Q00653 1-340)
T1 construct: Expressed in E. coli from pET11a, without a poly-His tag; also called p52 RHD; NF-kB2/p52 Rel homology domain
T1 sequence: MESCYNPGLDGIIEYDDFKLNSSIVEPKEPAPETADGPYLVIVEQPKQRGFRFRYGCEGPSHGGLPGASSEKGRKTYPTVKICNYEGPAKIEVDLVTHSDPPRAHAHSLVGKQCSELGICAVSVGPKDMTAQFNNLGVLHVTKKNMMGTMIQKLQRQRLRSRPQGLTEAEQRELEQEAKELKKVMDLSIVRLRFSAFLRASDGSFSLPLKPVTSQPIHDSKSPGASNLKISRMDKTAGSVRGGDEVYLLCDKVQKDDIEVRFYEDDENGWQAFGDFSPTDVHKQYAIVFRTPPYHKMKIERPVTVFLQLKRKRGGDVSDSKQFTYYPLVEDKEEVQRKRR
Test: co-refolding from 7 M urea (1:1.2 molar ratio), Ni-affinity capture through the His tag of RelB DBD (uncomplexed p52 DBD flows through), size exclusion; both proteins confirmed by western blotting
Protocol: His-RelB DBD and p52 DBD that had been purified as described above were mixed together in 1:1.2 molar ratio (i.e., with excess p52 DBD) and diluted to ~0.4 mg/ml concentration in a denaturing buffer B (7 M urea, 0.5 M NaCl, 20 mM Tris pH 7.5, 5 mM DTT, 10% glycerol). The denatured protein mixture (100 ml total volume that contained 40 mg total protein) was refolded by slowly removing urea by dialysis. The sample was subjected to dialysis against 2 L buffer C (buffer C was the same as buffer B except it lacked urea) for 6 hours. The dialysis step was repeated two more times. After dialysis, the refolded heterodimer was loaded onto the Ni-affinity column. Excess, uncomplexed p52 DBD flows through the column because it has no poly-His tag to bind Ni-affinity matrix. The heterodimer was eluted with imidazole. The eluate was concentrated and further purified using size exclusion chromatography (Superdex 200, Pharmacia). Fractions containing the heterodimer were pooled and concentrated. The presence of both proteins was confirmed by standard western blotting.

- binding result: binds
B1: poly histidine tagged murine RelB DNA-binding domain (His-RelB DBD) (other)
chain: MPSRRAARESAPELGALGSSDLSSLSLTVSRTTDELEIIDEYIKENGFGLVGTQLSEMPRLVPRGPASLSSVTLGPAAPPPPATPSWSCTLGRLVSPGPCPRPYLVITEQPKQRGMRFRYECEGRSAGSILGESSTEASKTQPAIELRDCGGLREVEVTACLVWKDWPHRVHPHSLVGKDCTDGVCRVRLRPHVSPRHSFNNLGIQCVRKKEIEAAIERKIQLGIDPYNAGSLKNHQEVDMNVVRICFQASYRDQQGHLHRMDPILSEPVYDKKSTNTSELRICRINKESGPCTGGEELYLLCDKVQKEDISVVFSTASWEGRADFSQADVHRQIAIVFKTPPYEDLEISEPVTVNVFLQRLTDGVCSEPLPFTYLPRDHDSYGVDKKRKRGLPDVLGEL
notes: Expressed in E. coli from pET15b as a poly histidine fusion protein; also called RelB RHD; RelB Rel homology domain; not shown: poly-histidine tag from vector pET15b (Novagen)
